Results published in US20170355766A1 (Xencor, published 2017).
Residue numbers refer to the chain shown, from its start. Names and notes keep the numbering of the source. Where two headings read alike, the source gives them in different places.

T1: FcγRIIaR (human, UniProt P12318)
T1 construct: recombinant receptor protein with 6xHis and GST tags; also called R131 FcγRIIa
T1 sequence (receptor, looked up): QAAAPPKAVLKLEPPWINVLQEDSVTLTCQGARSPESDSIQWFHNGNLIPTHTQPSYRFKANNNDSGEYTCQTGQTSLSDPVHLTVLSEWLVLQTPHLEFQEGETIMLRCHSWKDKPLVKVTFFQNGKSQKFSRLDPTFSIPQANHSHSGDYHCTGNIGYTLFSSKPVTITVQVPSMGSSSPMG

T2: human H131 FcγRIIa receptor protein (6xHis and GST tags) (human, UniProt P12318 34-217, limits assumed)
T2 construct: also called HIIa
T2 sequence (looked up): T1 sequence (receptor, looked up) with R134H

T3: human FcγRIIb receptor protein (R&D Systems) (human, UniProt P31994 46-217)
T3 construct: Analyte injected over antibodies captured on a protein A/G chip (Biacore); also called CD32b
T3 sequence (looked up): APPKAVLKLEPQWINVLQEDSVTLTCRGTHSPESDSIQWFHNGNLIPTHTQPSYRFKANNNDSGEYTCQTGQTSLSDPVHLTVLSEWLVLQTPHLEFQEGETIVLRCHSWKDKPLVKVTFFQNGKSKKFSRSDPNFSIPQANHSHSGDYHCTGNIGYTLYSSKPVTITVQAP

T4: human FcγRIIb on the cell surface (HEK293T cells transfected with human FcγRIIb cDNA; primary human B cells) (human, UniProt P31994 43-310)
T4 chain: T3 sequence (looked up)

B1: anti-CD19 WT IgG1 antibody (HuAM4G7 Fv, native human IgG1 Fc) (antibody)
heavy: not shown
light: DIVMTQSPATLSLSPGERATLSCRSSKSLQNVNGNTYLYWFQQKPGQSPQLLIYRMSNLNSGVPDRFSGSGSGTEFTLTISSLEPEDFAVYYCMQHLEYPITFGAGTKLEIKRTVAAPSVFIFPPSDEQLKSGTASVVCLLNNFYPREAKVQWKVDNALQSGNSQESVTEQDSKDSTYSLSSTLTLSKADYEKHKVYACEVTHQGLSSPVTKSFNRGEC
notes: Parent of the Fc variants; also called anti-CD19-IgG1; anti-CD19 IgG1 WT; copies: 2 + 2
B2: anti-CD19 antibody HuAM4G7 IgG1 Fc variant S267E (antibody)
heavy: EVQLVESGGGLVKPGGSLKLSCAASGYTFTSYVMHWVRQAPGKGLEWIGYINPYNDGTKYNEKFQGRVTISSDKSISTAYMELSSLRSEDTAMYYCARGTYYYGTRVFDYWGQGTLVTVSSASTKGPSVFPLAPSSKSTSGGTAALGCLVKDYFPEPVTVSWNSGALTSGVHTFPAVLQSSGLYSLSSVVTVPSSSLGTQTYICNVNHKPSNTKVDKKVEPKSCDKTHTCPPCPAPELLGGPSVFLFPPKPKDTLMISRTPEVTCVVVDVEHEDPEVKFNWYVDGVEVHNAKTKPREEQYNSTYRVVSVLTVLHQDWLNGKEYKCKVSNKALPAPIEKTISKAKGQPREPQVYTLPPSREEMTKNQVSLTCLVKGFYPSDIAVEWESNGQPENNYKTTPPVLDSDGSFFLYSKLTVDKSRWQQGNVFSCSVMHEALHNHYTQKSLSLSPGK
light: B1 light
notes: Positions are EU numbers, not positions on the UniProt entry; copies: 2 + 2
B3: ^236R/L328R (antibody, human IgG1, kappa)
heavy: EVQLVESGGGLVKPGGSLKLSCAASGYTFTSYVMHWVRQAPGKGLEWIGYINPYNDGTKYNEKFQGRVTISSDKSISTAYMELSSLRSEDTAMYYCARGTYYYGTRVFDYWGQGTLVTVSSASTKGPSVFPLAPSSKSTSGGTAALGCLVKDYFPEPVTVSWNSGALTSGVHTFPAVLQSSGLYSLSSVVTVPSSSLGTQTYICNVNHKPSNTKVDKKVEPKSCDKTHTCPPCPAPELLGRGPSVFLFPPKPKDTLMISRTPEVTCVVVDVSHEDPEVKFNWYVDGVEVHNAKTKPREEQYNSTYRVVSVLTVLHQDWLNGKEYKCKVSNKARPAPIEKTISKAKGQPREPQVYTLPPSREEMTKNQVSLTCLVKGFYPSDIAVEWESNGQPENNYKTTPPVLDSDGSFFLYSKLTVDKSRWQQGNVFSCSVMHEALHNHYTQKSLSLSPGK
light: B1 light
notes: HuAM4G7 IgG1 Fc variant; also called Fc-KO; FcγR knockout
B4: anti-CD19 antibody HuAM4G7 IgG1 Fc variant L235Y/S267E (antibody)
heavy: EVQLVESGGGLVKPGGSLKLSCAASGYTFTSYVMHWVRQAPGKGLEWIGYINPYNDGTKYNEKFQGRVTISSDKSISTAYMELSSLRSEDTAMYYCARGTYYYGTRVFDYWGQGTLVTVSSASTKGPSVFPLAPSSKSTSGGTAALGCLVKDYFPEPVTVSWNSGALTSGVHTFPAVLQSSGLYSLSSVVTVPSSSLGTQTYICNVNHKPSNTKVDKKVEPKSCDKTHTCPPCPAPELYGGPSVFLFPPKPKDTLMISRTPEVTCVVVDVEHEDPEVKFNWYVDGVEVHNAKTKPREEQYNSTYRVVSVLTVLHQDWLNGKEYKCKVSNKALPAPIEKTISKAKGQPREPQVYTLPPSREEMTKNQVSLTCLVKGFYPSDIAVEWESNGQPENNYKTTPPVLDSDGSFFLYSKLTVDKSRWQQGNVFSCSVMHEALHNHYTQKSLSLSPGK
light: B1 light
notes: as for B2
B5: V266M/S267E (antibody, human IgG1, kappa)
heavy: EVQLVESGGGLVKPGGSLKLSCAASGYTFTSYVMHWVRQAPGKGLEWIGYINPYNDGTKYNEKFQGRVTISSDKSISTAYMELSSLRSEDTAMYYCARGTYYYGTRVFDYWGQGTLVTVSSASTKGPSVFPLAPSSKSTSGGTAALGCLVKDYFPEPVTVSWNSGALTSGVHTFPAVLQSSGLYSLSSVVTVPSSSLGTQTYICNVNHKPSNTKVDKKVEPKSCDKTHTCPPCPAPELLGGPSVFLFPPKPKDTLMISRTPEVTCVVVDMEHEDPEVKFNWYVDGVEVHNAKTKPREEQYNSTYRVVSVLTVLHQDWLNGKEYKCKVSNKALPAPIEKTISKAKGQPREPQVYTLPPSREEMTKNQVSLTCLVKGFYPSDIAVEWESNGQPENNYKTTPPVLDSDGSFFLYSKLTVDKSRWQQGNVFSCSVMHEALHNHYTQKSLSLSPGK
light: B1 light
notes: HuAM4G7 IgG1 Fc variant
B6: G236R/L328R (antibody, human IgG1, kappa)
heavy: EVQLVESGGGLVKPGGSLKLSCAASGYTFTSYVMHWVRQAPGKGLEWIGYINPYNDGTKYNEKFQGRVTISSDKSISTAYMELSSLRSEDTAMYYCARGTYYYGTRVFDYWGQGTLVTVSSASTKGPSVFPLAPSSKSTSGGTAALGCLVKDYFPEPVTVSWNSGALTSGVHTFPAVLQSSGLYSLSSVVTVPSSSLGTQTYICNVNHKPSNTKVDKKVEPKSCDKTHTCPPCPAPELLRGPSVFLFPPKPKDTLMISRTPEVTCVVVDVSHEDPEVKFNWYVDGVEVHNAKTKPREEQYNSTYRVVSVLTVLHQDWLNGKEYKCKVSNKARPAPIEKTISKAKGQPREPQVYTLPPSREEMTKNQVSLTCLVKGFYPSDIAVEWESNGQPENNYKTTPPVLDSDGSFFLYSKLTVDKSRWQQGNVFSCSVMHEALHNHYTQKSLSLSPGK
light: B1 light
notes: as for B3
B7: S267E/A327E (antibody, human IgG1, kappa)
heavy: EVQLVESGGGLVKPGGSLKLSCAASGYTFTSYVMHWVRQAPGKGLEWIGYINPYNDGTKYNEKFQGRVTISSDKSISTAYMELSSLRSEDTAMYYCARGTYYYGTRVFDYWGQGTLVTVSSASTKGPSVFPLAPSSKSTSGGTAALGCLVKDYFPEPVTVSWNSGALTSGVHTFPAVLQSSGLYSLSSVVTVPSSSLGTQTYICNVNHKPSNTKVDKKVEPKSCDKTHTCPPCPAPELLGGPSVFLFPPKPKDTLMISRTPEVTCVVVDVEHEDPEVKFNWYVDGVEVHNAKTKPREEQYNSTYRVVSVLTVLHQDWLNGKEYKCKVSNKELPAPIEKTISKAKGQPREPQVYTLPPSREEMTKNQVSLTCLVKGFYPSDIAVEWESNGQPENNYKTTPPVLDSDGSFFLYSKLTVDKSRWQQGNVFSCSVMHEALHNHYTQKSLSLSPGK
light: B1 light
notes: HuAM4G7 IgG1 Fc variant
B8: L235Y/S267E/L328F (antibody, human IgG1, kappa)
heavy: EVQLVESGGGLVKPGGSLKLSCAASGYTFTSYVMHWVRQAPGKGLEWIGYINPYNDGTKYNEKFQGRVTISSDKSISTAYMELSSLRSEDTAMYYCARGTYYYGTRVFDYWGQGTLVTVSSASTKGPSVFPLAPSSKSTSGGTAALGCLVKDYFPEPVTVSWNSGALTSGVHTFPAVLQSSGLYSLSSVVTVPSSSLGTQTYICNVNHKPSNTKVDKKVEPKSCDKTHTCPPCPAPELYGGPSVFLFPPKPKDTLMISRTPEVTCVVVDVEHEDPEVKFNWYVDGVEVHNAKTKPREEQYNSTYRVVSVLTVLHQDWLNGKEYKCKVSNKAFPAPIEKTISKAKGQPREPQVYTLPPSREEMTKNQVSLTCLVKGFYPSDIAVEWESNGQPENNYKTTPPVLDSDGSFFLYSKLTVDKSRWQQGNVFSCSVMHEALHNHYTQKSLSLSPGK
light: B1 light
notes: HuAM4G7 IgG1 Fc variant
B9: anti-CD19 antibody S267E/L328F (HuAM4G7 Fv, human IgG1 Fc with S267E/L328F) (antibody)
heavy: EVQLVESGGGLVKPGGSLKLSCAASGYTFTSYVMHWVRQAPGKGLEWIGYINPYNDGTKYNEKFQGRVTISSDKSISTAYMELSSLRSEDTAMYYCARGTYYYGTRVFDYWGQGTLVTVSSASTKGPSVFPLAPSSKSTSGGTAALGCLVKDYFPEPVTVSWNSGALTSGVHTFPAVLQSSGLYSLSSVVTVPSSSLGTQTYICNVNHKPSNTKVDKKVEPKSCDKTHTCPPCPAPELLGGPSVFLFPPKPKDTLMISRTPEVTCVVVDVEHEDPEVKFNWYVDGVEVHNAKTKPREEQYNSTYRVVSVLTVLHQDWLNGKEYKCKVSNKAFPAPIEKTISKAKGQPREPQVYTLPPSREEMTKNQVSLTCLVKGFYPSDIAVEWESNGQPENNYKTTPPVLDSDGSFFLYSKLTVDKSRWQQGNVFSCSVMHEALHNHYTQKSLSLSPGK
light: B1 light
notes: They are treated here as one molecule; also called anti-CD19-S267E/L328F; a-CD19 S267E/L328F; copies: 2 + 2
B10: anti-CD19 antibody HuAM4G7 IgG1 Fc variant S267E/H268E (antibody)
heavy: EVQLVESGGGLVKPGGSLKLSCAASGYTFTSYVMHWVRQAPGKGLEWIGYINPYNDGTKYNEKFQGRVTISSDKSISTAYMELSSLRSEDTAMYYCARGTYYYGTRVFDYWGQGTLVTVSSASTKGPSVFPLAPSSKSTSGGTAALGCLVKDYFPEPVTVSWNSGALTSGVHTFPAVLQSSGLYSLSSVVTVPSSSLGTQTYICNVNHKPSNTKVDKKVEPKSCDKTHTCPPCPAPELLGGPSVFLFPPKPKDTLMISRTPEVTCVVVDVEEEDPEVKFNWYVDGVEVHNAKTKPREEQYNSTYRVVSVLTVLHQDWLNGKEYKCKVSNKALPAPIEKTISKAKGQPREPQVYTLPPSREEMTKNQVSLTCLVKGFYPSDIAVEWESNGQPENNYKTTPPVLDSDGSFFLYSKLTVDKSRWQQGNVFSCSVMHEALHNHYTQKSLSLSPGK
light: B1 light
notes: Positions are EU numbers, not positions on the UniProt entry; also called H268E/S267E; copies: 2 + 2
B11: G236D (antibody, human IgG1, kappa)
heavy: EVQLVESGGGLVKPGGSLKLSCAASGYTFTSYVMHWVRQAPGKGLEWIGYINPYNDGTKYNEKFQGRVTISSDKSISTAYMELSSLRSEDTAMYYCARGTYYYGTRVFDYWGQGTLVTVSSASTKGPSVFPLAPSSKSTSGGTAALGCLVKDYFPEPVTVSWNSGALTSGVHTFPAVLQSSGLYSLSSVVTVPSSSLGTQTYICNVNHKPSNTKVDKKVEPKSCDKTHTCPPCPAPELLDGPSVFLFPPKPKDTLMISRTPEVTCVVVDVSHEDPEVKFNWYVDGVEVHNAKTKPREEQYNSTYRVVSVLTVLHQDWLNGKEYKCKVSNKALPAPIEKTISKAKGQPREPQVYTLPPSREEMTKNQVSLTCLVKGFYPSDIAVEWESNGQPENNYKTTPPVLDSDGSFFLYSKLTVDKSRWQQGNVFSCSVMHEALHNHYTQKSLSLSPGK
light: B1 light
notes: HuAM4G7 IgG1 Fc variant
B12: S239D (antibody, human IgG1, kappa)
heavy: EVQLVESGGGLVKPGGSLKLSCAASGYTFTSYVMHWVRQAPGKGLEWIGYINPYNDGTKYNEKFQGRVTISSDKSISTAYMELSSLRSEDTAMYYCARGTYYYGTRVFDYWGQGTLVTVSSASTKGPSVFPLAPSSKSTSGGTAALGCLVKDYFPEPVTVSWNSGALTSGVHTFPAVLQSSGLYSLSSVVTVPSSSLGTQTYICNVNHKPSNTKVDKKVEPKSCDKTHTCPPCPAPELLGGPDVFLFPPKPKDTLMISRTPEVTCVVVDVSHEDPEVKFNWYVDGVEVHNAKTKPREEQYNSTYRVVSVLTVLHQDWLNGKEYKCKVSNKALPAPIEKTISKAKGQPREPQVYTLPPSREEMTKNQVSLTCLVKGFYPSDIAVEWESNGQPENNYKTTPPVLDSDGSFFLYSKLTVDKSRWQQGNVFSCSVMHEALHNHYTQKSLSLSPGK
light: B1 light
notes: HuAM4G7 IgG1 Fc variant

Experiments:
[1] = biological target: T1, FcγRIIaR; test: SPR (Biacore)
[2] = biological target: T5, human V158 FcγRIIIa receptor protein (6xHis and GST tags) (human, UniProt P08637 17-208, limits assumed); test: SPR (Biacore)
T5 construct: also called VIIIa
T5 sequence (P08637 17-208 F176V limits assumed): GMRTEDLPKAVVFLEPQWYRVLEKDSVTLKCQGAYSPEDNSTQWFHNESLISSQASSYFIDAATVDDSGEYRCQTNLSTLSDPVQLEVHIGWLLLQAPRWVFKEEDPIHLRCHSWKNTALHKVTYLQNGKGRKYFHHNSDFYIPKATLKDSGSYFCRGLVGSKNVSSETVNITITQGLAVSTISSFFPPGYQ

[3] = biological target: T6, human FcγRI receptor protein (R&D Systems) (human, UniProt P12314 16-288); test: SPR (Biacore)
T6 construct: also called CD64
T6 sequence (P12314 16-288 limits assumed): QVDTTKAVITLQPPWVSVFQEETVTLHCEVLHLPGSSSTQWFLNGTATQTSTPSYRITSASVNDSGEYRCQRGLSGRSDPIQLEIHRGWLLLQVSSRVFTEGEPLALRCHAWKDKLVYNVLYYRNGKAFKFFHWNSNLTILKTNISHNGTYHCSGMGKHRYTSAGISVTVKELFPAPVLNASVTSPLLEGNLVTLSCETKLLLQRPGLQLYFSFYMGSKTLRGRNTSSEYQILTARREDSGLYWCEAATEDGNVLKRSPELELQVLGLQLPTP

[4] = biological target: T2, human H131 FcγRIIa receptor protein …; test: SPR (Biacore)
[5] = biological target: T3, human FcγRIIb receptor protein (R&D …); test: SPR (Biacore)
[6] = biological target: T3, human FcγRIIb receptor protein (R&D …); test: Biacore SPR ('according to the data herein')
Protocol: (§1) Variants were screened for receptor affinity using Biacore™ technology, also referred to as Biacore herein, a surface plasmon resonance (SPR) based technology for studying biomolecular interactions in real time. SPR measurements were performed using a Biacore 3000 instrument (Biacore, Piscataway, N.J.). A protein A/G (Pierce Biotechnology) CM5 biosensor chip (Biacore) was generated using a standard primary amine coupling protocol. All measurements were performed using HBS-EP buffer (10 mM HEPES pH 7.4, 0.15 M NaCl, 3 mM EDTA, 0.005% vol/vol surfactant P20, Biacore). Antibodies at 20 nM or 50 nM in HBS-EP buffer were immobilized on the protein A/G surface and FcγRs were injected. After each cycle, the surface was regenerated by injecting glycine buffer (10 mM, pH 1.5). Data were processed by zeroing time and response before the injection of FcγR and by subtracting appropriate nonspecific signals (response of reference channel and injection of running buffer). Kinetic analyses were performed by global fitting of binding data with a 1:1 Langmuir binding model using BIAevaluation software (Biacore).

[7] = biological target: T4, human FcγRIIb on the cell surface …; test: flow cytometry on FcγRIIb-transfected HEK293T cells
[8] = biological target: T4, human FcγRIIb on the cell surface …; test: as above
[9] = biological target: T7, FcγRIIIaF (human, UniProt P08637); test: SPR (Biacore)
T7 construct: recombinant receptor protein with 6xHis and GST tags; also called F158 FcγRIIIa
T7 sequence (P08637 17-208 limits assumed): as the sequence (P08637 17-208 F176V limits assumed) above, with V160F counted along it

[10] = biological target: T4, human FcγRIIb on the cell surface …; test: flow cytometry on FcγRIIb-transfected HEK293T cells
[11] = biological target: T3, human FcγRIIb receptor protein (R&D …); test: Biacore SPR, antibody captured on protein A/G, FcγR injected
Protocol: as §1

[12] = biological target: T4, human FcγRIIb on the cell surface …; test: flow cytometry on HEK293T cells transfected with human FcγRIIb, PE anti-human Fab detection

Binder	Fold FcγRIIaR [1] [fold]	Fold FcγRIIIaV [2] [fold]	Fold FcγRI [3] [fold]	Fold FcγRIIaH [4] [fold]	Fold FcγRIIb [5] [fold]	EC50 (read off the curve) [7] [ng/mL]	binding result [2]	also measured
B1	1	1	1	1	1	–	–	Kd [6]: ~1500 nM
B2	29.5	0.381	2.81	–	20.4	~30	–	EC50 (read off the curve) [8]: ~20 ng/mL
B3	–	–	–	–	–	–	no binding	binding result [1]: no binding; binding result [9]: no binding; binding result [3]: no binding; binding result [4]: no binding; binding result [5]: no binding
B4	37.5	–	0.00347	0.941	37.2	–	–	EC50 (read off the curve) [10]: ~6 ng/mL
B5	30.7	0.0448	1.98	–	29.2	~10	–	–
B6	–	–	–	–	–	–	no binding	binding result [1]: no binding; binding result [9]: no binding; binding result [3]: no binding; binding result [4]: no binding; binding result [5]: no binding
B7	29.3	–	2.3	–	30.9	~10	–	–
B8	171	–	0.00436	0.758	187	–	no binding	–
B9	275	0.038	1.5	–	242	–	–	improvement in affinity relative to WT IgG1 [11]: > 2 orders of magnitude; fold EC50 relative to WT IgG1 [12]: ~320 fold
B10	41.7	3.15	3.52	–	40.6	~10	–	–
B11	0.758	–	0.0211	0.167	1.54	–	no binding	binding result [9]: no binding
B12	3.73	8.14	3.53	1.1	3.6	–	–	Fold FcγRIIIaF [9]: 6.32 fold
